The target of this test is CD25 (IL-2Rα) (UniProt P01589). Nature of the test: cell-based or functional assay.

Percent of pSTAT5+ cells among Treg (flow cytometry on PBMC, 20 min) data for one molecule are collected here from patent US20240392008A1.

Chain of UniProt P01589 (P01589 22-272 limits assumed): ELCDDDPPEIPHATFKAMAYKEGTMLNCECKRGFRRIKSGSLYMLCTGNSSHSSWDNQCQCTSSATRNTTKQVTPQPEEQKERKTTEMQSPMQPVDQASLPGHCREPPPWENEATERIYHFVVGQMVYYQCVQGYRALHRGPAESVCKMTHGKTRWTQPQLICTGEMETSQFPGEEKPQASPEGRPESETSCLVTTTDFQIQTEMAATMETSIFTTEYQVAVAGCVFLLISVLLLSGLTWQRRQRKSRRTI

B1: IC-T6-IC-IL2v (IL2v immunoconjugate) (protein, part only; not given: isotype control Fab and Fc chains, not shown: a dimerising Fc or GST)
chain, part: APASSSTKKTQLQLEHLLLDLQMILNGINNYKNPKLTRMLTAKFAMPKKATELKHLQCLEEELKPLEEVLNGAQSKNFHLRPRDLISNINVIVLELKGSETTFMCEYADETATIVEFLNRWITFAQSIISTLT
Take B1: the percent of pSTAT5+ cells among Treg (flow cytometry on PBMC, 20 min) came to 3 log.
